Key:
RBPMS RRM WT = RBPMS RRM WT (human, UniProt Q93062 14-111); assay: ITC; approaching 2:1 RRM:RNA; ITC: 20 mM Tris-HCl pH 7.5, 100 mM NaCl, 25 C; 0.03-0.05 mM protein in cell, 0.26-0.5 mM RNA in syringe, single-site model; settings: protein: recombinant; tags: 6His-SUMO removed with Ulp1; chain copies: 2; single strand
RBPMS RRM T103A/K104A = RBPMS RRM T103A/K104A (human, UniProt Q93062 14-111, T103A;K104A); assay: ITC; ITC: 20 mM Tris-HCl pH 7.5, 100 mM NaCl, 25 C; 0.03-0.05 mM protein in cell, 0.26-0.5 mM RNA in syringe, single-site model; settings: protein: recombinant; tags: 6His-SUMO removed with Ulp1; single strand
Sequence of RBPMS RRM T103A/K104A (Q93062 14-111 T103A/K104A): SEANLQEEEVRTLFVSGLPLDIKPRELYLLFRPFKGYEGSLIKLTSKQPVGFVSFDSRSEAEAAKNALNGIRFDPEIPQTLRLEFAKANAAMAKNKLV

RBPMS RRM K100E = RBPMS RRM K100E (human, UniProt Q93062 14-111, K100E); assay: as above; settings: protein: recombinant; tags: 6His-SUMO removed with Ulp1; single strand
Sequence of RBPMS RRM K100E (Q93062 14-111 K100E): as the sequence (Q93062 14-111 T103A/K104A) above, with K87E, A90T, A91K counted along it

RBPMS RRM F27A = RBPMS RRM F27A (human, UniProt Q93062 14-111, F27A); assay: as above; settings: protein: recombinant; tags: 6His-SUMO removed with Ulp1; single strand
Sequence of RBPMS RRM F27A (Q93062 14-111 F27A): as the sequence (Q93062 14-111 T103A/K104A) above, with F14A, A90T, A91K counted along it

RBPMS RRM F65A = RBPMS RRM F65A (human, UniProt Q93062 14-111, F65A); assay: as above; settings: protein: recombinant; tags: 6His-SUMO removed with Ulp1; single strand
Sequence of RBPMS RRM F65A (Q93062 14-111 F65A): as the sequence (Q93062 14-111 T103A/K104A) above, with F52A, A90T, A91K counted along it

RBPMS RRM E97A/K100A = RBPMS RRM E97A/K100A (human, UniProt Q93062 14-111, E97A;K100A); assay: ITC; Kd printed only in figure; ITC: 20 mM Tris-HCl pH 7.5, 100 mM NaCl, 25 C; 0.03-0.05 mM protein in cell, 0.26-0.5 mM RNA in syringe, single-site model; settings: protein: recombinant; tags: 6His-SUMO removed with Ulp1; single strand
Sequence of RBPMS RRM E97A/K100A (Q93062 14-111 E97A/K100A): as the sequence (Q93062 14-111 T103A/K104A) above, with E84A, K87A, A90T, A91K counted along it

Sequence of RBPMS RRM WT (Q93062 14-111): as the sequence (Q93062 14-111 T103A/K104A) above, with A90T, A91K counted along it

With GCACUUUCAACUUCACU (ssRNA) [ETF1 17-nt RNA] the Kd (RBPMS RRM WT) was 900 nM, the binding result (RBPMS RRM T103A/K104A) was “no binding” and the binding result (RBPMS RRM K100E) was “no binding”. For the same binder, the binding result (RBPMS RRM F27A) was “no binding”, the binding result (RBPMS RRM F65A) was “no binding” and the binding signal (RBPMS RRM E97A/K100A) was ~10 fold reduced affinity vs WT.

— article PMC4783296, “Structural basis underlying CAC RNA recognition by the RRM domain of dimeric RNA-binding protein RBPMS”
